According to paper PMC5460274, “Human dimethylarginine dimethylaminohydrolase 1 inhibition by proton pump inhibitors and the cardiovascular risk marker asymmetric dimethylarginine: in vitro and in vivo significance” (Scientific Reports, 2017):

Substrate: CN(C)C(=N)NCCC[C@H](N)C(=O)O
Experiment: cells, lysate or membranes

B1: dimethylarginine dimethylaminohydrolase 1 (DDAH1) (Homo sapiens) (protein)
chain: AGLGHPAAFGRATHAVVRALPESLGQHALRSAKGEEVDVARAERQHQLYVGVLGSKLGLQVVELPADESLPDCVFVEDVAVVCEETALITRPGAPSRRKEVDMMKEALEKLQLNIVEMKDENATLDGGDVLFTGREFFVGLSKRTNQRGAEILADTFKDYAVSTVPVADGLHLKSFCSMAGPNLIAIGSSESAQKALKIMQQMSDHRYDKLTVPDDIAANCIYLNIPNKGHVLLHRTPEEYPESAKVYEKLKDHMLIPVSMSELEKVDGLLTCCSVLINKKVDS
  Km: 45 ± 2 µmol/L
